Non-standard residues stand in square brackets, D forms with d. Phe(4-F) = N[C@@H](Cc1ccc(F)cc1)C(=O)O; 1Nal = N[C@@H](Cc1cccc2ccccc12)C(=O)O; αMeL = CC(C)C[C@](C)(N)C(=O)O; Nle = CCCC[C@H](N)C(=O)O; Aib = CC(C)(N)C(=O)O

The text below walks through data of patent US20190233495A1 (Sanofi, published 2019).

This test addresses T1, RXFP1 receptor (UniProt Q9HBX9 1-757, limits assumed).
T1 sequence (looked up): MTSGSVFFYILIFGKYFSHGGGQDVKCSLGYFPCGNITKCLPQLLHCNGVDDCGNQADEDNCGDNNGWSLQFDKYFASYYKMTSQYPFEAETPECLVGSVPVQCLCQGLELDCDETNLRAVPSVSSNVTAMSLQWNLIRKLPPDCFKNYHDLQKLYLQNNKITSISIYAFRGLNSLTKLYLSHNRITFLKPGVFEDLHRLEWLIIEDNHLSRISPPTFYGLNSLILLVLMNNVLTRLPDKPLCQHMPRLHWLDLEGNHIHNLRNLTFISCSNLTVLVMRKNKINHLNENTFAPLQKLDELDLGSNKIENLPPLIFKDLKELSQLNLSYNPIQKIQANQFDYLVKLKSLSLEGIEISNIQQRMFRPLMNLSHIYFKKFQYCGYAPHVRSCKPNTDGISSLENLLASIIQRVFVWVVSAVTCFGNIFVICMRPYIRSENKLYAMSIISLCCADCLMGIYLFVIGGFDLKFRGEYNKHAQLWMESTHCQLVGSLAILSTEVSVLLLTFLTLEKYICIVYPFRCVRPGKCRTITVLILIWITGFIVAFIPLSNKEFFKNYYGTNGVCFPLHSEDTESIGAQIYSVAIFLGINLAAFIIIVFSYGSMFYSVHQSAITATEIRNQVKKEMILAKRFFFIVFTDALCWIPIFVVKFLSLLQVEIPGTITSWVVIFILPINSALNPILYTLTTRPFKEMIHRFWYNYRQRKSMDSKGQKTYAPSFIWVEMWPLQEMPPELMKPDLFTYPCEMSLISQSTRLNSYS
Briefly: cell-based or functional assay.

B1: SEQ ID NO: 59 (peptide)
peptide: Ac-LEGREKVRAQI[Aib][Aib]EGQST[Phe(4-F)]S[Aib]RKK-NH2
SMILES: CC[C@H](C)[C@H](NC(=O)[C@H](CCC(N)=O)NC(=O)[C@H](C)NC(=O)[C@H](CCCNC(=N)N)NC(=O)[C@@H](NC(=O)[C@H](CCCCN)NC(=O)[C@H](CCC(=O)O)NC(=O)[C@H](CCCNC(=N)N)NC(=O)CNC(=O)[C@H](CCC(=O)O)NC(=O)[C@H](CC(C)C)NC(C)=O)C(C)C)C(=O)NC(C)(C)C(=O)NC(C)(C)C(=O)N[C@@H](CCC(=O)O)C(=O)NCC(=O)N[C@@H](CCC(N)=O)C(=O)N[C@@H](CO)C(=O)N[C@H](C(=O)N[C@@H](Cc1ccc(F)cc1)C(=O)N[C@@H](CO)C(=O)NC(C)(C)C(=O)N[C@@H](CCCNC(=N)N)C(=O)N[C@@H](CCCCN)C(=O)N[C@@H](CCCCN)C(N)=O)[C@@H](C)O
With B1, the “cAMP assay in OVCAR 5 cells EC50” value worked out at 29.8 nM and the “cAMP assay in OVCAR 5 cells Emax” value is 86%.

B2: SEQ ID NO: 7 (peptide)
peptide: Ac-LEGREKVR[Aib]QI[Aib]IEGMSKWSKRKK-NH2
SMILES: CC[C@H](C)[C@H](NC(=O)[C@H](CCC(N)=O)NC(=O)C(C)(C)NC(=O)[C@H](CCCNC(=N)N)NC(=O)[C@@H](NC(=O)[C@H](CCCCN)NC(=O)[C@H](CCC(=O)O)NC(=O)[C@H](CCCNC(=N)N)NC(=O)CNC(=O)[C@H](CCC(=O)O)NC(=O)[C@H](CC(C)C)NC(C)=O)C(C)C)C(=O)NC(C)(C)C(=O)N[C@H](C(=O)N[C@@H](CCC(=O)O)C(=O)NCC(=O)N[C@@H](CCSC)C(=O)N[C@@H](CO)C(=O)N[C@@H](CCCCN)C(=O)N[C@@H](Cc1c[nH]c2ccccc12)C(=O)N[C@@H](CO)C(=O)N[C@@H](CCCCN)C(=O)N[C@@H](CCCNC(=N)N)C(=O)N[C@@H](CCCCN)C(=O)N[C@@H](CCCCN)C(N)=O)[C@@H](C)CC
For B2, the “cAMP assay in OVCAR 5 cells EC50” value stood at 56.6 nM and the “cAMP assay in OVCAR 5 cells Emax” value amounted to 101%.

B3: SEQ ID NO: 56 (peptide)
peptide: Ac-[αMeL]EGREKVRAK(Ac)I[Aib][Aib]EG[Nle]STWS[Aib]RKK(Ac)-NH2
SMILES: CCCC[C@H](NC(=O)CNC(=O)[C@H](CCC(=O)O)NC(=O)C(C)(C)NC(=O)C(C)(C)NC(=O)[C@@H](NC(=O)[C@H](CCCCNC(C)=O)NC(=O)[C@H](C)NC(=O)[C@H](CCCNC(=N)N)NC(=O)[C@@H](NC(=O)[C@H](CCCCN)NC(=O)[C@H](CCC(=O)O)NC(=O)[C@H](CCCNC(=N)N)NC(=O)CNC(=O)[C@H](CCC(=O)O)NC(=O)[C@](C)(CC(C)C)NC(C)=O)C(C)C)[C@@H](C)CC)C(=O)N[C@@H](CO)C(=O)N[C@H](C(=O)N[C@@H](Cc1c[nH]c2ccccc12)C(=O)N[C@@H](CO)C(=O)NC(C)(C)C(=O)N[C@@H](CCCNC(=N)N)C(=O)N[C@@H](CCCCN)C(=O)N[C@@H](CCCCNC(C)=O)C(N)=O)[C@@H](C)O
In the case of B3, the “cAMP assay in OVCAR 5 cells EC50” value was found to be 12.3 nM and the “cAMP assay in OVCAR 5 cells Emax” value was 95%.

B4: SEQ ID NO: 55 (peptide)
peptide: Ac-LEGREKVRAQI[Aib][Aib]EG[Nle]SRWS[Aib]RRR-NH2
SMILES: CCCC[C@H](NC(=O)CNC(=O)[C@H](CCC(=O)O)NC(=O)C(C)(C)NC(=O)C(C)(C)NC(=O)[C@@H](NC(=O)[C@H](CCC(N)=O)NC(=O)[C@H](C)NC(=O)[C@H](CCCNC(=N)N)NC(=O)[C@@H](NC(=O)[C@H](CCCCN)NC(=O)[C@H](CCC(=O)O)NC(=O)[C@H](CCCNC(=N)N)NC(=O)CNC(=O)[C@H](CCC(=O)O)NC(=O)[C@H](CC(C)C)NC(C)=O)C(C)C)[C@@H](C)CC)C(=O)N[C@@H](CO)C(=O)N[C@@H](CCCNC(=N)N)C(=O)N[C@@H](Cc1c[nH]c2ccccc12)C(=O)N[C@@H](CO)C(=O)NC(C)(C)C(=O)N[C@@H](CCCNC(=N)N)C(=O)N[C@@H](CCCNC(=N)N)C(=O)N[C@@H](CCCNC(=N)N)C(N)=O
For B4, the “cAMP assay in OVCAR 5 cells EC50” value turned out to be 4.9 nM and the “cAMP assay in OVCAR 5 cells Emax” value was found to be 88%.

B5: SEQ ID NO: 9 (peptide)
peptide: Ac-LEGREKVRAQI[Aib]IEGMSK[1Nal]SKRKK-NH2
SMILES: CC[C@H](C)[C@H](NC(=O)[C@H](CCC(N)=O)NC(=O)[C@H](C)NC(=O)[C@H](CCCNC(=N)N)NC(=O)[C@@H](NC(=O)[C@H](CCCCN)NC(=O)[C@H](CCC(=O)O)NC(=O)[C@H](CCCNC(=N)N)NC(=O)CNC(=O)[C@H](CCC(=O)O)NC(=O)[C@H](CC(C)C)NC(C)=O)C(C)C)C(=O)NC(C)(C)C(=O)N[C@H](C(=O)N[C@@H](CCC(=O)O)C(=O)NCC(=O)N[C@@H](CCSC)C(=O)N[C@@H](CO)C(=O)N[C@@H](CCCCN)C(=O)N[C@@H](Cc1cccc2ccccc12)C(=O)N[C@@H](CO)C(=O)N[C@@H](CCCCN)C(=O)N[C@@H](CCCNC(=N)N)C(=O)N[C@@H](CCCCN)C(=O)N[C@@H](CCCCN)C(N)=O)[C@@H](C)CC
In the case of B5, the “cAMP assay in OVCAR 5 cells EC50” value was determined as 37.6 nM and the “cAMP assay in OVCAR 5 cells Emax” value was determined as 100%.

B6: SEQ ID NO: 58 (peptide)
peptide: Ac-LEGREKVRAQI[Aib][Aib]EGQSTYS[Aib]RKK-NH2
SMILES: CC[C@H](C)[C@H](NC(=O)[C@H](CCC(N)=O)NC(=O)[C@H](C)NC(=O)[C@H](CCCNC(=N)N)NC(=O)[C@@H](NC(=O)[C@H](CCCCN)NC(=O)[C@H](CCC(=O)O)NC(=O)[C@H](CCCNC(=N)N)NC(=O)CNC(=O)[C@H](CCC(=O)O)NC(=O)[C@H](CC(C)C)NC(C)=O)C(C)C)C(=O)NC(C)(C)C(=O)NC(C)(C)C(=O)N[C@@H](CCC(=O)O)C(=O)NCC(=O)N[C@@H](CCC(N)=O)C(=O)N[C@@H](CO)C(=O)N[C@H](C(=O)N[C@@H](Cc1ccc(O)cc1)C(=O)N[C@@H](CO)C(=O)NC(C)(C)C(=O)N[C@@H](CCCNC(=N)N)C(=O)N[C@@H](CCCCN)C(=O)N[C@@H](CCCCN)C(N)=O)[C@@H](C)O
Turning to B6, the “cAMP assay in OVCAR 5 cells EC50” value is 41 nM and the “cAMP assay in OVCAR 5 cells Emax” value was 93%.

B7: SEQ ID NO: 57 (peptide)
peptide: Ac-LEGREKVRAQI[Aib][Aib]EGQSTFS[Aib]RKK-NH2
SMILES: CC[C@H](C)[C@H](NC(=O)[C@H](CCC(N)=O)NC(=O)[C@H](C)NC(=O)[C@H](CCCNC(=N)N)NC(=O)[C@@H](NC(=O)[C@H](CCCCN)NC(=O)[C@H](CCC(=O)O)NC(=O)[C@H](CCCNC(=N)N)NC(=O)CNC(=O)[C@H](CCC(=O)O)NC(=O)[C@H](CC(C)C)NC(C)=O)C(C)C)C(=O)NC(C)(C)C(=O)NC(C)(C)C(=O)N[C@@H](CCC(=O)O)C(=O)NCC(=O)N[C@@H](CCC(N)=O)C(=O)N[C@@H](CO)C(=O)N[C@H](C(=O)N[C@@H](Cc1ccccc1)C(=O)N[C@@H](CO)C(=O)NC(C)(C)C(=O)N[C@@H](CCCNC(=N)N)C(=O)N[C@@H](CCCCN)C(=O)N[C@@H](CCCCN)C(N)=O)[C@@H](C)O
For the molecule B7, the “cAMP assay in OVCAR 5 cells EC50” value is 24.4 nM and the “cAMP assay in OVCAR 5 cells Emax” value was 91%.

B8: SEQ ID NO: 6 (peptide)
peptide: H-LEGREKVRAQI[Aib]IEGMSKWSKRKK-NH2
SMILES: CC[C@H](C)[C@H](NC(=O)[C@H](CCC(N)=O)NC(=O)[C@H](C)NC(=O)[C@H](CCCNC(=N)N)NC(=O)[C@@H](NC(=O)[C@H](CCCCN)NC(=O)[C@H](CCC(=O)O)NC(=O)[C@H](CCCNC(=N)N)NC(=O)CNC(=O)[C@H](CCC(=O)O)NC(=O)[C@@H](N)CC(C)C)C(C)C)C(=O)NC(C)(C)C(=O)N[C@H](C(=O)N[C@@H](CCC(=O)O)C(=O)NCC(=O)N[C@@H](CCSC)C(=O)N[C@@H](CO)C(=O)N[C@@H](CCCCN)C(=O)N[C@@H](Cc1c[nH]c2ccccc12)C(=O)N[C@@H](CO)C(=O)N[C@@H](CCCCN)C(=O)N[C@@H](CCCNC(=N)N)C(=O)N[C@@H](CCCCN)C(=O)N[C@@H](CCCCN)C(N)=O)[C@@H](C)CC
Consider B8, for which the “cAMP assay in OVCAR 5 cells EC50” value turned out to be 46.3 nM and the “cAMP assay in OVCAR 5 cells Emax” value was 97%.

B9: SEQ ID NO: 8 (peptide)
peptide: Ac-LEGREKVRAQI[Aib]IEG[Nle]SKWSKRKK-NH2
SMILES: CCCC[C@H](NC(=O)CNC(=O)[C@H](CCC(=O)O)NC(=O)[C@@H](NC(=O)C(C)(C)NC(=O)[C@@H](NC(=O)[C@H](CCC(N)=O)NC(=O)[C@H](C)NC(=O)[C@H](CCCNC(=N)N)NC(=O)[C@@H](NC(=O)[C@H](CCCCN)NC(=O)[C@H](CCC(=O)O)NC(=O)[C@H](CCCNC(=N)N)NC(=O)CNC(=O)[C@H](CCC(=O)O)NC(=O)[C@H](CC(C)C)NC(C)=O)C(C)C)[C@@H](C)CC)[C@@H](C)CC)C(=O)N[C@@H](CO)C(=O)N[C@@H](CCCCN)C(=O)N[C@@H](Cc1c[nH]c2ccccc12)C(=O)N[C@@H](CO)C(=O)N[C@@H](CCCCN)C(=O)N[C@@H](CCCNC(=N)N)C(=O)N[C@@H](CCCCN)C(=O)N[C@@H](CCCCN)C(N)=O
For B9, the “cAMP assay in OVCAR 5 cells EC50” value was 60 nM and the “cAMP assay in OVCAR 5 cells Emax” value stood at 103%.
